Experiment [1] has as its target IgG1 heavy chain with CH3 construct 6 (T366W) (human) [IgG part: P01857]. The experiment is described as follows: SDS-PAGE of protein A-purified supernatant; construct expressed alone.
Experiment [2] has the same target. Kind of experiment: native MS; transfection P: vector IX alone (tetanus VH, construct 6).
Experiment [3] addresses IgG1 heavy chain with CH3 construct 71 (L351D, Y349E) (human) [IgG part: P01857]. Kind of experiment: native MS; combination 11 co-expressed (A: VH MF1337, B: VH MF1122).
The target is the same in experiment [4]. Kind of experiment: SDS-PAGE of protein A-purified supernatant; construct expressed alone.
Experiment [5] has the same target. Kind of experiment: native MS; combination 5 co-expressed (A: VH MF1337, B: VH MF1122).
In experiment [6] the target is IgG1 heavy chain with CH3 construct 76 (L351K, L368K) (human) [IgG part: P01857]. The experiment is described as follows: SDS-PAGE of protein A-purified supernatant; construct expressed alone.
For experiment [7] the target is unchanged. The experiment is described as follows: native MS; combination 15 co-expressed (A: VH MF1337, B: VH MF1122).
Experiment [8] concerns the target IgG1 heavy chain with CH3 construct 77 (L351R) (human) [IgG part: P01857]. The experiment is described as follows: native MS; combination 16 co-expressed (A: VH MF1337, B: VH MF1122).
The target is the same in experiment [9]. Kind of experiment: SDS-PAGE of protein A-purified supernatant; construct expressed alone.
For experiment [10] the target is unchanged. The experiment is described as follows: native MS; combination 1 co-expressed (A: VH MF1337, B: VH MF1122).
The target in experiment [11] is IgG1 heavy chain with CH3 construct 73 (L351D, Y349E, L368E) (human) [IgG part: P01857]. The experiment is described as follows: SDS-PAGE of protein A-purified supernatant; construct expressed alone.
The target is the same in experiment [12]. The experiment is described as follows: native MS; combination 6 co-expressed (A: VH MF1337, B: VH MF1122).
In experiment [13] the target is IgG1 heavy chain with CH3 construct 74 (L351D, Y349D) (human) [IgG part: P01857]. The experiment is described as follows: SDS-PAGE of protein A-purified supernatant; construct expressed alone.
For experiment [14] the target is unchanged. The experiment is described as follows: native MS; combination 10 co-expressed (A: VH MF1337, B: VH MF1122).
Experiment [15] concerns the target IgG1 heavy chain with CH3 construct 70 (L351E, Y349E) (human) [IgG part: P01857]. The experiment is described as follows: SDS-PAGE of protein A-purified supernatant; construct expressed alone.
For experiment [16] the target is unchanged. The experiment is described as follows: native MS; combination 4 co-expressed (A: VH MF1337, B: VH MF1122).
Experiment [17] addresses IgG1 heavy chain with CH3 construct 75 (L351D, Y349D, R355D) (human) [IgG part: P01857]. The experiment is described as follows: SDS-PAGE of protein A-purified supernatant; construct expressed alone.
Experiment [18] has the same target. Kind of experiment: native MS; combination 9 co-expressed (A: VH MF1337, B: VH MF1122).
For experiment [19], the target named is IgG1 heavy chain with CH3 construct 78 (T366E) (human) [IgG part: P01857]. Kind of experiment: SDS-PAGE of protein A-purified supernatant; construct expressed alone.
Experiment [20] has the same target. The experiment is described as follows: native MS; combination 1 co-expressed (A: VH MF1337, B: VH MF1122).
In experiment [21] the target is IgG1 heavy chain with CH3 construct 79 (T366R) (human) [IgG part: P01857]. The experiment is described as follows: SDS-PAGE of protein A-purified supernatant; construct expressed alone.
For experiment [22], the target named is IgG1 heavy chain with CH3 construct 80 (L351E) (human) [IgG part: P01857]. The experiment is described as follows: native MS; combination 14 co-expressed (A: VH MF1337, B: VH MF1122).
Experiment [23] has as its target IgG1 heavy chain with CH3 construct 79 (T366R) (human) [IgG part: P01857]. The description is as above.
The target of experiment [24] is IgG1 heavy chain with CH3 construct 7 (T366S, L368A, Y407V) (human) [IgG part: P01857]. The experiment is described as follows: SDS-PAGE of protein A-purified supernatant; construct expressed alone.
Experiment [25] has the same target. The experiment is described as follows: native MS; transfection Q: vector X alone (thyroglobulin VH, construct 7).
Experiment [26] concerns the target IgG1 heavy chain with CH3 construct 80 (L351E) (human) [IgG part: P01857]. The experiment is described as follows: SDS-PAGE of protein A-purified supernatant; construct expressed alone.
The target is the same in experiment [27]. The experiment is described as follows: native MS; combination 13 co-expressed (A: VH MF1337, B: VH MF1122).
Experiment [28] has as its target IgG1 heavy chain with CH3 construct 3 (K392D, K409D, K439D) (human) [IgG part: P01857]. Kind of experiment: native MS; transfection F: vector VIII alone (tetanus VH, construct 3).
Experiment [29] shares this target. Kind of experiment: SDS-PAGE of protein A-purified supernatant; construct expressed alone.
Experiment [30] has the same target. The experiment is described as follows: native MS; transfection E: vector VII alone (fibrinogen VH, construct 3).
Experiment [31] addresses IgG1 heavy chain with CH3 construct 2 (K392D, K409D) (human) [IgG part: P01857]. The experiment is described as follows: SDS-PAGE of protein A-purified supernatant; construct expressed alone.
Experiment [32] shares this target. Kind of experiment: native MS; transfection C: vector V alone (fibrinogen VH, construct 2).
Experiment [33] has the same target. Kind of experiment: native MS; transfection D: vector VI alone (tetanus VH, construct 2).

In experiment [1], “IgG1 heavy chain with CH3 construct 6 (T366W) (from UniProt P01857-1)” yielded a % IgG of 27.6% and a % half molecule of 72.4%. Also, in [2], the Full IgG found (%) was 18% and the Half molecules found (%) was 82%.
“IgG1 heavy chain with CH3 construct 71 (L351D, Y349E) (from UniProt P01857-1)”: the % BB found in experiment [3] was determined as 0%. In [4], this substance had a % IgG of 79.7% and a % half molecule of 20.3%. In addition, in experiment [5], the % BB found was found to be 1%.
In [6], “IgG1 heavy chain with CH3 construct 76 (L351K, L368K) (from UniProt P01857-1)” came in with a % IgG of 56.6% and a % half molecule of 43.4%. The % BB found in experiment [7] stood at 2.5%.
Turning to “IgG1 heavy chain with CH3 construct 77 (L351R) (from UniProt P01857-1)”, the % BB found in [8] was determined as 1%; in experiment [10], 2%. Moreover, in experiment [9], the % IgG was found to be 100%.
As for “IgG1 heavy chain with CH3 construct 73 (L351D, Y349E, L368E) (from UniProt P01857-1)”, in experiment [11], the % IgG turned out to be 79.3% and the % half molecule is 20.7%. In addition, in [12], the % BB found turned out to be 1%.
As to “IgG1 heavy chain with CH3 construct 74 (L351D, Y349D) (from UniProt P01857-1)”, in experiment [13], the % IgG came to 88.6% and the % half molecule was found to be 11.4%. Also, the % BB found in [14] turned out to be 1%.
In experiment [15], “IgG1 heavy chain with CH3 construct 70 (L351E, Y349E) (from UniProt P01857-1)” displayed a % IgG of 67.8% and a % half molecule of 32.2%. For the same substance, in [16], the % BB found turned out to be 0%.
On to “IgG1 heavy chain with CH3 construct 75 (L351D, Y349D, R355D) (from UniProt P01857-1)”, for which, in [17], the % IgG is 89.9% and the % half molecule stood at 10.1%. For the same substance, the % BB found in experiment [18] is 2%.
In experiment [19], “IgG1 heavy chain with CH3 construct 78 (T366E) (from UniProt P01857-1)” registered a % IgG of 44.4% and a % half molecule of 55.6%. Further, in [20], the % AA found turned out to be 3%. Besides, in experiment [10], the % AB found was determined as 81%.
On to “IgG1 heavy chain with CH3 construct 79 (T366R) (from UniProt P01857-1)”, for which, in experiment [21], the % IgG was 29.6% and the % half molecule came to 70.4%. Further, the % AB found in experiment [22] came out at 38%. The % AA found in experiment [23] stood at 4%.
In experiment [24], “IgG1 heavy chain with CH3 construct 7 (T366S, L368A, Y407V) (from UniProt P01857-1)” showed a % IgG of 58.6% and a % half molecule of 41.4%. Moreover, in experiment [25], the Full IgG found (%) came out at 42% and the Half molecules found (%) amounted to 58%.
In the case of “IgG1 heavy chain with CH3 construct 80 (L351E) (from UniProt P01857-1)”, the % IgG in experiment [26] came out at 100%. The % BB found in experiment [27] worked out at 10%; in experiment [22] it was 36%.
On to “IgG1 heavy chain with CH3 construct 3 (K392D, K409D, K439D) (from UniProt P01857-1)”, for which, in experiment [28], the Full IgG found (%) stood at 36% and the Half molecules found (%) came out at 64%. In [29], the % IgG was 24.5% and the % half molecule was 75.5%. Moreover, in experiment [30], the Full IgG found (%) came to 24% and the Half molecules found (%) is 76%.
Take “IgG1 heavy chain with CH3 construct 2 (K392D, K409D) (from UniProt P01857-1)”: in experiment [31], the % IgG is 30.9% and the % half molecule was determined as 69.1%. In experiment [32], this substance came in with a Full IgG found (%) of 23% and a Half molecules found (%) of 77%. In [33], this substance came in with a Full IgG found (%) of 77% and a Half molecules found (%) of 23%.

(Values after patent publication US20150139996A1.)
